Experimental findings from US20240148895A1 (EISAI R AND D MANAGEMENT, published 2024) are described below.

For assay [1], the target named is T1, human CEACAM6 expressed on Pan02/Pgp-KO/hCEACAM6 cells (human, UniProt P40199 35-320).
T1 construct: also called carcinoembryonic antigen-related cell adhesion molecule 6; CD66c
T1 sequence: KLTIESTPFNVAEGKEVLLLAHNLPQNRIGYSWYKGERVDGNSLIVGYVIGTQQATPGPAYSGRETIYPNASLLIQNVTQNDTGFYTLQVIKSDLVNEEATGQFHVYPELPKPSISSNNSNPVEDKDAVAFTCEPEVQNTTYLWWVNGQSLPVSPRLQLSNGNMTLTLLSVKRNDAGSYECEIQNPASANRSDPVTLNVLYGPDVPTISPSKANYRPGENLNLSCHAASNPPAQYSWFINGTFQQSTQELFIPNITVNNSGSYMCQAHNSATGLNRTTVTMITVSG
The experiment in a line: flow cytometry sorting ([..] II) of Pan02 cells transfected with human CEACAM6. From the text:
The mouse pancreatic cancer cell line Pan02 (National Institutes of Health) was transfected with recombinant Cas9 protein (Alt-R S.p. HiFi Cas9 V3, Integrated DNA Technologies), and mouse Abcb1a and single guided RNA (Aft-R CRISPR sgRNA, Integrated DNA Technologies) for Abcb1b, using a NEPA21 Super Electroporator (Nepa Gene). The obtained cells were further transfected with human CEACAM6 using pLV[Exp]-Puro-EFS lentiviral vector (VectorBuilder) and MISSION Lentiviral Packaging Mix (Sigma-Aldrich). […] The established cells were designated as cell line Pan02/Pgp-KO/hCEACAM6, and were maintenance cultured in a 5% CO₂ incubator (37° C.) using RPMI (FujiFilm-Wako Pure Chemical Industries) containing 10% fetal bovine serum (FBS: SIGMA 173012) and penicillin/streptomycin (FujiFilm-Wako Pure Chemical Industries) (hereunder referred to simply as “culture medium”).
(Flow cytometry measures light scatter and fluorescence of single cells or particles in a stream.)

Assay [2] has as its target human CEACAM6 extracellular domain-MBP-His protein (human). The experiment in a line: ELISA: FLAG-tagged scFv from E. coli supernatant captured on anti-FLAG antibody, 20 nM antigen, HRP-labeled anti-His antibody detection, absorbance at 450 nm. As to the method: (§1) After the second panning procedure, a single colony from the concentrated phage-infected TG1 cells was transferred to culture medium on a 96-well plate. IPTG was added to induce expression of the FLAG-tagged scFv, and vibration culture was carried out overnight at 30° C. The TG1 cells were spinned down and the scFv-containing E. coli culture supernatant was used to pickup the wells that were reactive with human CEACAM6.
(§2) Reactivity with human CEACAM6 was evaluated by ELISA according to the following procedure, using either human CEACAM6 extracellular domain-SEAP-His protein or human CEACAM6 extracellular domain-MBP-His protein. The wells of a 96-well plate (Nunc) were coated with anti-FLAG antibody (Sigma). After incubation overnight at 4° C., the wells were blocked with 2% skim milk (BD) for 2 hours at room temperature. After rinsing 3 times with 0.02% Tween20/PBS (Nacalai Tesque, Inc.), human CEACAM6 extracellular domain-SEAP-His protein or human CEACAM6 extracellular domain-MBP-His protein (final concentration: 20 nM) and E. coli culture supernatant containing scFv were added to each well and incubation was continued for 2 hours at room temperature. […] An equivalent of stopping solution (1N H₂SO₄, FujiFilm Wako Pure) was added to each well, and the absorbance at 450 nm was read off using a microplate reader (Thermo Scientific). […]

Assay [3] addresses T2, human CEACAM6 extracellular domain-SEAP-His protein (human).
T2 chain: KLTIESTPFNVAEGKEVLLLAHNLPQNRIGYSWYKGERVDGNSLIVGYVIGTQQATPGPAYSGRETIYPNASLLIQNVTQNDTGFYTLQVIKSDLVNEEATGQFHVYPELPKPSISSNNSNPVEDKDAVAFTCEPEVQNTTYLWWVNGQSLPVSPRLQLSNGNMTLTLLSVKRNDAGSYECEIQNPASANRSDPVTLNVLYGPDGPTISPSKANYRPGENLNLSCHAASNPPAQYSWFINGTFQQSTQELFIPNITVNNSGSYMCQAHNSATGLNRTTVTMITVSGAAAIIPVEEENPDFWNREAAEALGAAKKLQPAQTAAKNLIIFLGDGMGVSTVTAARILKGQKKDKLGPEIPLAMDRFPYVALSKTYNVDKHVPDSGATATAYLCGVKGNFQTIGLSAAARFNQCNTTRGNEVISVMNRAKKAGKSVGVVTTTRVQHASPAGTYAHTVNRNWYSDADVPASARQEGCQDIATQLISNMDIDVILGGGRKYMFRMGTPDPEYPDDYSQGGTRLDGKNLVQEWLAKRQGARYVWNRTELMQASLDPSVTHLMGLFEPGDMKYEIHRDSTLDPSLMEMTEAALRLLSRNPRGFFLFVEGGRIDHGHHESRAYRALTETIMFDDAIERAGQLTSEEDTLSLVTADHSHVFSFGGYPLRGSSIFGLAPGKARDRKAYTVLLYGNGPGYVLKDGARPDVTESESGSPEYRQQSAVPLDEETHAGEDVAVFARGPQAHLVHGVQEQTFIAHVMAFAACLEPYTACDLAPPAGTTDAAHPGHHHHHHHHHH
Described as above. As to the method: as §1, §2

B1: antibody A (human anti-CEACAM6_#84.7 monoclonal antibody) (antibody, human IgG1, lambda, V domains shown)
VH: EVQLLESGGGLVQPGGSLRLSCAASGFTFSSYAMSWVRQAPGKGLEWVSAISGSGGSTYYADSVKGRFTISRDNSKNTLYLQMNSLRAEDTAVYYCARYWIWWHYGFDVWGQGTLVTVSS
VL: SSELTQDPAVSVALGQTVRITCQGDSLRSYYASWYQQKPGQAPVLVIYGKNNRPSGIPDRFSGSSSGNTASLTITGAQAEDEADYYCQSYYSSSHYVVFGGGTKLTVLG
notes: The heavy chain constant region is human IgG1/2m: IgG1 CH1 and hinge, IgG2 CH2 and CH3 with V234A and G237A (Eu numbering); The light chain constant region is human Ig lambda
Consider B1, for which, in assay [1], the binding result is listed as “binds”.

B2: human antibody fragment (scFv) specifically binding to human CEACAM6, from which antibody A was designed (scFv, V domains shown)
VH: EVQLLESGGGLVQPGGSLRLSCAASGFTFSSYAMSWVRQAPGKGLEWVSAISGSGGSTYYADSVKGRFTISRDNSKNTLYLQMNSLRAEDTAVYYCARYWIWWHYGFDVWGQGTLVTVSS
VL: SSELTQDPAVSVALGQTVRITCQGDSLRSYYASWYQQKPGQAPVLVIYGKNNRPSGIPDRFSGSSSGNTASLTITGAQAEDEADYYCQSYYSSSHYVVFGGGTKLTVL
notes: Tested as a single-chain FLAG-tagged scFv in E. coli culture supernatant; also called FLAG-tagged scFv
On to B2, for which the binding result in assay [2] and in assay [3] was “binds” in each case.
